Reference: US6521594 (LA JOLLA CANCER RESEARCH FOUNDATION, dated 2003)
Starred links: 1 amine or outer side, 2 acyl side, 3 side chain; linkers in the order of their positions; H or OH if unused. Positions of bridges follow the written chain, without caps; N, C: chain ends. Non-standard residues stand in square brackets, D forms with d. Primed or numbered codes have the meaning given here. No end group written: not given here. *: point of attachment. Tyr(OMe)″ = O-methyl-tyrosine (Y-OMe, TyrOMe, O-Me-Tyr), COc1ccc(C[C@H](N[*:1])C(=O)[*:2])cc1; Tyr(Me)(4) = O-methyl-tyrosine (O-Me-Tyr, TyrMe), COc1ccc(C[C@H](N[*:1])C(=O)[*:2])cc1; Tyr(Me) = O-methyl-tyrosine (Y-OMe, O-Me-Tyr), COc1ccc(C[C@H](N[*:1])C(=O)[*:2])cc1; Tyr(Me)(3) = O-methyl-tyrosine (O-Me-Tyr), COc1ccc(C[C@H](N[*:1])C(=O)[*:2])cc1; Tyr(nHex) = O-n-hexyl-tyrosine, CCCCCCOc1ccc(C[C@H](N[*:1])C(=O)[*:2])cc1; Tyr(OMe)(3) = O-methyl-tyrosine, COc1ccc(C[C@H](N[*:1])C(=O)[*:2])cc1; Cys(β,β-pentamethylene) = O=C([C@@H](N[*:1])C1(S[*:3])CCCCC1)[*:2]; Phe(4-NO2) = N[C@@H](Cc1ccc([N+](=O)[O-])cc1)C(=O)O; Tyr(3,5-I2) = N[C@@H](Cc1cc(I)c(O)c(I)c1)C(=O)O; Cyclohexylacetyl(1-SH) = O=C(CC1(S)CCCCC1)*; Phe(4-I) = N[C@@H](Cc1ccc(I)cc1)C(=O)O; 1Nal = N[C@@H](Cc1cccc2ccccc12)C(=O)O; Cha = N[C@@H](CC1CCCCC1)C(=O)O; dPen = CC(C)(S)[C@@H](N)C(=O)O; Pen = CC(C)(S)[C@H](N)C(=O)O; Orn = NCCC[C@H](N)C(=O)O

How the values were obtained:
[1] = target: Platelet glycoprotein IIb/IIIa (human, UniProt P08514 32-1039; P05106 27-788); assay: cell-based or functional assay
Fibronectin receptor = target: T1, Fibronectin receptor (human, UniProt P08648 42-1049; P05556 21-798); assay: competitive ELISA, fibronectin coated
T1 construct: mature; Purified on a 110 kd fibronectin fragment column; also called Fn-R; FnR
T1 sequence (P08648 42-1049, chain 1 of 2): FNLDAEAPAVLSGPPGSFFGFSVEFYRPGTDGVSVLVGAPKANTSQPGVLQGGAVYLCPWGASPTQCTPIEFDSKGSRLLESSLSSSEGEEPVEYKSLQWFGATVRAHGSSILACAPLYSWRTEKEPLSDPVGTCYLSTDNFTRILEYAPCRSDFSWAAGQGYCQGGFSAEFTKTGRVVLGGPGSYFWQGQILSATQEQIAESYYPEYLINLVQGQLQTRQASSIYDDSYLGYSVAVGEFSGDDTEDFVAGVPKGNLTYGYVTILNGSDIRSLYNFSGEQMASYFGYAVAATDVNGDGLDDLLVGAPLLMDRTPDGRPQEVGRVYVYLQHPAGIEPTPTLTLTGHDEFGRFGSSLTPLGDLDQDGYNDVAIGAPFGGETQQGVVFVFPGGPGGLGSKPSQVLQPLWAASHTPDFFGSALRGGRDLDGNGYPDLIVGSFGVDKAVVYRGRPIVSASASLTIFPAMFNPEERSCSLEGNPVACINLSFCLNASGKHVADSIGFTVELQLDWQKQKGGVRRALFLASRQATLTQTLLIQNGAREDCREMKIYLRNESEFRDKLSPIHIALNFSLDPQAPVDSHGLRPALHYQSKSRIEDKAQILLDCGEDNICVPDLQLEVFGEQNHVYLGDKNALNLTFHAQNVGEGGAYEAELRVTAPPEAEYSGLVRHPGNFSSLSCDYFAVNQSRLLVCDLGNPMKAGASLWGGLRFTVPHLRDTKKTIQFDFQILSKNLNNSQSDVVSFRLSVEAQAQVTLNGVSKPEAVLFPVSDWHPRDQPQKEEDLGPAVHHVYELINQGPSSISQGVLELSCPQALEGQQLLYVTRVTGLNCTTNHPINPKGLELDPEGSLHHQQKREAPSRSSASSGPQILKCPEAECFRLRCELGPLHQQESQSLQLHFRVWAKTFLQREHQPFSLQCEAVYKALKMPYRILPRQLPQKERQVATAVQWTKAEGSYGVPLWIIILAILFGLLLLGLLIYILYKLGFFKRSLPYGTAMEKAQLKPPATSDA
T1 sequence (P05556 21-798, chain 2 of 2): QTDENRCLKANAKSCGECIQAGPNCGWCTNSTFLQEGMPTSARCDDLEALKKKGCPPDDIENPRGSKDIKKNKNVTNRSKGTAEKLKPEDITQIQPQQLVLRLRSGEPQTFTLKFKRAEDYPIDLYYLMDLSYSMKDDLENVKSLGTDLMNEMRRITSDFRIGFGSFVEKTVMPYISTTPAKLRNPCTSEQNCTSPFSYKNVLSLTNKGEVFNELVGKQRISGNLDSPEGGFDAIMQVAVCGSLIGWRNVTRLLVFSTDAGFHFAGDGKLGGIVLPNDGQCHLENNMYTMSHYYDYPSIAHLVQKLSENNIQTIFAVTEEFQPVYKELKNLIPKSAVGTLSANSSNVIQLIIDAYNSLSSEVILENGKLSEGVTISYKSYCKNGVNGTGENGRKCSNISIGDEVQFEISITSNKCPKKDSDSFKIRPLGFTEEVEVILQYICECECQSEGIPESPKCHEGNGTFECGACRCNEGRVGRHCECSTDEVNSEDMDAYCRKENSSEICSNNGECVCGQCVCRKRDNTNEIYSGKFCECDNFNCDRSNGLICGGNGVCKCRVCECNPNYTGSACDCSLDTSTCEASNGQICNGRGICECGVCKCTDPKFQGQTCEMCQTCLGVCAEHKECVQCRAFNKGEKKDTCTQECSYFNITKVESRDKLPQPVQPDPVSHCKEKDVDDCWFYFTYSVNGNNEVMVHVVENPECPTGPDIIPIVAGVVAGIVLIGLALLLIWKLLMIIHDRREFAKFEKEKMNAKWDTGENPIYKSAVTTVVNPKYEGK

Vitronectin receptor = target: T2, Vitronectin receptor (human, UniProt P06756 31-1048; P05106 27-788); assay: competition, ELISA or liposome assay, vitronectin coated
T2 construct: mature; also called Vn-R; VnR
T2 sequence (P06756 31-1048, chain 1 of 2): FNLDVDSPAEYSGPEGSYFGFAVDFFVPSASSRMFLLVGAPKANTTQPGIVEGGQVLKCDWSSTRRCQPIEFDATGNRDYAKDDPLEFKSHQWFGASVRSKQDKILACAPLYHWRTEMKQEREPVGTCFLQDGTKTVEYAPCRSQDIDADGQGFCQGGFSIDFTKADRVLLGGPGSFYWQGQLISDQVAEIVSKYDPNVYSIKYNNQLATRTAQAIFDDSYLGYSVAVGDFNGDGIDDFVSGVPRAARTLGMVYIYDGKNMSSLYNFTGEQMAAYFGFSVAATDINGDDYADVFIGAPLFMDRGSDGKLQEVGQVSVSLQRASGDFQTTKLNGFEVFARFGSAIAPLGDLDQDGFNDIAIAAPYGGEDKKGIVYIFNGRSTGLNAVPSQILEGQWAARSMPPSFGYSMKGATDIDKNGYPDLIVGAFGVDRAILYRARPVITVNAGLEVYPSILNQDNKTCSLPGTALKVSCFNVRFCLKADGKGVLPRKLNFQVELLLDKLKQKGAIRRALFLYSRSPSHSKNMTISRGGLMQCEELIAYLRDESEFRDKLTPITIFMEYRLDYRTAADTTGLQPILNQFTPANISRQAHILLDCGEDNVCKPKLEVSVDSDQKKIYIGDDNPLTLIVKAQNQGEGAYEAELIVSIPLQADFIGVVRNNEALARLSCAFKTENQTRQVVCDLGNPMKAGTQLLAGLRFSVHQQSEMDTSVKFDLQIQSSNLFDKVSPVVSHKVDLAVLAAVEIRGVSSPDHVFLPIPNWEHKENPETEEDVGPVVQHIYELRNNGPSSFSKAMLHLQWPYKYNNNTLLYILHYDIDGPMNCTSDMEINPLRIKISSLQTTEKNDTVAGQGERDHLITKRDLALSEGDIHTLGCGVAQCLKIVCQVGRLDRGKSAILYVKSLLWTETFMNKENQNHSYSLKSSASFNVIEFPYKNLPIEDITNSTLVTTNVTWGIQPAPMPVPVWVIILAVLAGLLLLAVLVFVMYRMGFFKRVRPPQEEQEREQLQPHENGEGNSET
T2 sequence (P05106 27-788, chain 2 of 2): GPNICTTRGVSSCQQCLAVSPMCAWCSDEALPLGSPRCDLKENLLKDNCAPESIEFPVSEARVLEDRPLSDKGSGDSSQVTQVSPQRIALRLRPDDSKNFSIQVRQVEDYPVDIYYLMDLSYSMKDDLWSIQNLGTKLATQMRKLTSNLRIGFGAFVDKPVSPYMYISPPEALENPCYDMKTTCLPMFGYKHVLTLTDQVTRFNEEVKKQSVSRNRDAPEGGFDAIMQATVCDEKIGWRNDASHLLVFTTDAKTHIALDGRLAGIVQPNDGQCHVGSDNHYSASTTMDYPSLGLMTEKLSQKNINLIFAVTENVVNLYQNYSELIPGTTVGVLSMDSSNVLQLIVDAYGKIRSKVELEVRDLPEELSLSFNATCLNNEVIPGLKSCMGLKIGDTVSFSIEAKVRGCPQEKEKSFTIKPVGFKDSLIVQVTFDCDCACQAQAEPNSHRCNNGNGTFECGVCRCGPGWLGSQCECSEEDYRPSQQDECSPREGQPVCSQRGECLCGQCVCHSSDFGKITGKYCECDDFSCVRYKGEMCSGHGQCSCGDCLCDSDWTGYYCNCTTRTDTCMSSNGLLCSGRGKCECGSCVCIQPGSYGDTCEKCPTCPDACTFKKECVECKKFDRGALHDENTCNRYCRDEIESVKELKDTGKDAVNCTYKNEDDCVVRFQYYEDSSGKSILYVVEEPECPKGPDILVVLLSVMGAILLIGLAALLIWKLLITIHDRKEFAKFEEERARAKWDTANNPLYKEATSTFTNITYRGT

| Binder | IC50, ADP-Stimulated Aggregation [1] | IC50 (Vitronectin receptor) | other results |
| --- | --- | --- | --- |
| XGHRGDLRXA (not fully specified; t-but-am-Pmp at 1; Pen at 9) [(t-but-am-Pmp)GHRGDLR(Pen)A] | 89 µM | – | – |
| R[Pen]GHRGDTRCR (disulfide 2-10) [R(Pen)GHRGDTRCR] | 8.8 µM | – | – |
| G[Pen]GRGDTPCA (disulfide 2-9) [G(Pen)GRGDTPCA] | 22.3 µM | – | – |
| G[Pen]LRGDTPCA (disulfide 2-9) [G(Pen)LRGDTPCA] | 86 µM | – | – |
| R[Cys(β,β-pentamethylene)]GRGDTPCA (disulfide 2-9) [R(AminoPmp)GRGDTPCA] | – | – | IC50 (Fibronectin receptor): 0.03 µM |
| R[Cys(β,β-pentamethylene)]GRGDWPCR (disulfide 2-9) [R(am-Pmp)GRGDWPCR] | – | – | IC50 (Fibronectin receptor): 0.05 µM |
| R[Pen]GRGDTPCR (disulfide 2-9) [R(Pen)GRGDTPCR] | – | 10 nM | IC50, Thrombin Stimulated Aggregation [1]: 2 µM |
| R[Pen]GRGDWPCR (disulfide 2-9) [R(Pen)GRGDWPCR] | – | – | IC50, Thrombin Stimulated Aggregation [1]: 0.53 µM |
| G[Pen]LRGDSRCA (disulfide 2-9) [G(Pen)LRGDSRCA] | 41 µM | – | IC50, Thrombin Stimulated Aggregation [1]: 49 µM |
| G[Pen]GHRGDTRCA (disulfide 2-10) [G(Pen)GHRGDTRCA] | 11.3 µM | – | IC50, Thrombin Stimulated Aggregation [1]: 17 µM |
| L[Pen]GHRGDLRCA (disulfide 2-10) [L(Pen)GHRGDLRCA] | 10.5 µM | – | – |
| R[Pen]GRGDLRCA (disulfide 2-9) [R(Pen)GRGDLRCA] | 16 µM | – | IC50, Thrombin Stimulated Aggregation [1]: 13 µM |
| G[Pen]FRGDSFCA (disulfide 2-9) [G(Pen)FRGDSFCA] | < 200 µM | 50 nM | – |
| G[Pen]LRGDSPCA (disulfide 2-9) [G(Pen)LRGDSPCA] | 415 µM | – | IC50, Thrombin Stimulated Aggregation [1]: 308 µM |
| G[Pen]GRGDSFCA (disulfide 2-9) [G(Pen)GRGDSFCA] | 115 µM | 20 nM | – |
| G[Pen]GRGDRPCA (disulfide 2-9) [G(Pen)GRGDRPCA] | 22.3 µM | – | – |
| K[Pen]GRGDTPCA (disulfide 2-9, 21 numbers stand for 20 rows, so none is assigned) [K(Pen)GRGDTPCA] | – | – | IC50 (Fibronectin receptor): 0.03 µM |
| R[Cys(β,β-pentamethylene)]GHRGDFRCR (disulfide 2-10 (inferred)) [R(Pmc)GHRGDFRCR] | 0.62 µM | – | – |
| R[Cys(β,β-pentamethylene)]GHRGDYRCR (disulfide 2-10) [R(Pmc)GHRGDYRCR] | 1 µM | – | – |

| Binder | IC50, ADP-Stimulated Aggregation [1] | IC50 (Vitronectin receptor) | other results |
| --- | --- | --- | --- |
| R[Cys(β,β-pentamethylene)]GHRGDVRCR (disulfide 2-10; not fully specified; printed as R(Pmc)GHRGDVRCR) [R(Pmc)GHRGDVRCR] | 0.69 µM | 2000 nM | – |
| [Cyclohexylacetyl(1-SH)]GHRGDLRCA (disulfide 1-9) [(Pmp)GHRGDLRCA] | – | 10000 nM | – |
| LRGDSPDG | 150 µM | 200 nM | – |
| YRGDSPDG | – | 80 nM | – |
| R[Orn]GHRGDLRDR [R(orn)GHRGDLRDR] | < 200 µM | – | – |
| G[Pen]YRGDSPCA (disulfide 2-9) [G(Pen)YRGDSPCA] | 47 µM | – | – |
| [t‑butylAmino‑Pmp]GHRGDLRCA (disulfide 1-9; also: place of tert-butyl and chirality not given here) [(t-butylAmino-Pmp) GHRGDLRCA] | 130 µM | – | – |
| R[Pen]GRGDSRCA (disulfide 2-9) [R(Pen)GRGDSRCA] | 12 µM | – | IC50, Thrombin Stimulated Aggregation [1]: 12 µM |
| R[Cys(β,β-pentamethylene)]GHRGD[Tyr(nHex)]RCR (disulfide 2-10) [R(Pmc)GHRGD(O-n-hexyl-Tyr)RCR] | – | – | IC50 (Fibronectin receptor): 2 µM |
| R[Pen]GHRGD[1Nal]RCR (disulfide 2-10) [R(Pen)GHRGD(1-Nal)RCR] | – | – | IC50 (Fibronectin receptor): 10 µM |
| D[Cys(β,β-pentamethylene)]GHRGD[Tyr(OMe)″]RCR (disulfide 2-10) [D(Pmc)GHRGD(O-Me-Tyr)RCR] | – | – | IC50 (Fibronectin receptor): 10 µM |
| R[Cys(β,β-pentamethylene)]GHRGD[Phe(4-I)]KCR (disulfide 2-10) [R(Pmc)GHRGD(p-iodo-Phe)KCR] | – | 8000 nM | – |
| R[Cys(β,β-pentamethylene)]GHRGD[Tyr(Me)]KCR (disulfide 2-10) [R(Pmc)GHRGD(O-Me-Tyr)KCR] | – | 10000 nM | IC50 (Fibronectin receptor): 10 µM |
| R[Cys(β,β-pentamethylene)]GHRGD[Phe(4-NO2)]KCR (disulfide 2-10) [R(Pmc)GHRGD(p-nitro-Phe)KCR] | – | 10000 nM | – |
| G[Cys(β,β-pentamethylene)]GHRGD[Tyr(Me)(3)]RCR (disulfide 2-10) [G(Pmc)GHRGD(O-Me-Tyr)RCR] | – | 10000 nM | IC50 (Fibronectin receptor): 10 µM |
| R[Cys(β,β-pentamethylene)]RGD[Cha]CR (disulfide 2-7) [R(am-Pmp)RGD(Cha)CR] | < 200 µM | – | – |
| R[Cys(β,β-pentamethylene)]GHRGD[Tyr(Me)(4)]RCR (disulfide 2-10; also: am-Pmp2 from racemic mixture) [R(am-Pmp)GHRGD(TyrMe)RCR] | – | 1000 nM | – |
| R[dPen]NPRGD[Tyr(OMe)(3)]RCR (disulfide 2-10) [R(dPen)NPRGD(O-Me-Tyr)RCR] | – | – | IC50 (Fibronectin receptor): 10 µM |
| R[Cys(β,β-pentamethylene)]GHRGD[Tyr(3,5-I2)]RCR (disulfide 2-10) [R(Pmc)GHRGD(3,5-diiodo-Tyr)RCR] | – | 900 nM | – |
